The results in this text go back to patent publication US20080119640A1.

Where “and” joins values, the source holds several entries; their conditions need not be identical. Equal entries are not always repeated.

For this experiment, the target named is T1, IFNα receptor 2 (IFNAR2) on THP-1 cells (human) (UniProt P48551).
T1 sequence (looked up): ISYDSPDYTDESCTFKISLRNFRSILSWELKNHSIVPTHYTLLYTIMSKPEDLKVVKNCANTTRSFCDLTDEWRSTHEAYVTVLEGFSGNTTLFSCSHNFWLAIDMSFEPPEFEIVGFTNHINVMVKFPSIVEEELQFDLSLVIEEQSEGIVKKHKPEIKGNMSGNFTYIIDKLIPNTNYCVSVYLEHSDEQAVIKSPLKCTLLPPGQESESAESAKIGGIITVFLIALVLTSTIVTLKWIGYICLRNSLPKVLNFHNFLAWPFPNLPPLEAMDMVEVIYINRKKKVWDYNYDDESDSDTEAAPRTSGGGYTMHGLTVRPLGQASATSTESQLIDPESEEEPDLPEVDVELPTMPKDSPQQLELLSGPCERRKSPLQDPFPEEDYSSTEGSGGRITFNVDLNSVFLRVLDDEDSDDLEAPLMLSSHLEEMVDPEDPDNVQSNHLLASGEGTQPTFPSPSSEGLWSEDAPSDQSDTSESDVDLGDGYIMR
The experiment is described as follows: cell-based or functional assay.
Take “6His E41pAF (from UniProt P01563 24-188) (ligand)”: the pSTAT1 % (PEGASYS fixed as 100%) was 3.97% and the pSTAT1 EC50 (pM) is 19 pM.

For the substance “6His E41pAF-30K PEG (from UniProt P01563 24-188) (ligand)”, the pSTAT1 % (PEGASYS fixed as 100%) was 25.2% and the pSTAT1 EC50 (pM) amounted to 120 pM.

Take “6His E107pAF (from UniProt P01563 24-188) (ligand)”: the pSTAT1 % (PEGASYS fixed as 100%) amounted to 6.43% and the pSTAT1 EC50 (pM) was determined as 30.8 pM. For “6His E107pAF-30K PEG (from UniProt P01563 24-188) (ligand)”, the pSTAT1 % (PEGASYS fixed as 100%) is 22.3% and 7.27%.

With “6His E113pAF-30K PEG (from UniProt P01563 24-188) (ligand)”, the pSTAT1 % (PEGASYS fixed as 100%) was 54.7% and the pSTAT1 EC50 (pM) worked out at 262 pM.

As to “6His F27pAF-30K PEG (from UniProt P01563 24-188) (ligand)”, the pSTAT1 % (PEGASYS fixed as 100%) turned out to be 66% and the pSTAT1 EC50 (pM) is 316 pM. “6His F38L (from UniProt P01563 24-188) (ligand)” had a pSTAT1 % (PEGASYS fixed as 100%) of 2.72% and a pSTAT1 EC50 (pM) of 13 pM. Substance “6His F38S (from UniProt P01563 24-188) (ligand)” displayed a pSTAT1 % (PEGASYS fixed as 100%) of 3.76%.

The substance “6His G37pAF (from UniProt P01563 24-188) (ligand)” came in with a pSTAT1 % (PEGASYS fixed as 100%) of 4.55% and a pSTAT1 EC50 (pM) of 21.8 pM. On to “6His G37pAF-30K PEG (from UniProt P01563 24-188) (ligand)”, for which the pSTAT1 % (PEGASYS fixed as 100%) turned out to be 40.3% and the pSTAT1 EC50 (pM) was determined as 193 pM.

“6His H34pAF (from UniProt P01563 24-188) (ligand)” displayed a pSTAT1 % (PEGASYS fixed as 100%) of 25%. For the substance “6His H34pAF-30K PEG (from UniProt P01563 24-188) (ligand)”, the pSTAT1 % (PEGASYS fixed as 100%) stood at 33.6% and the pSTAT1 EC50 (pM) was 161 pM. Turning to “6His K31pAF (from UniProt P01563 24-188) (ligand)”, the pSTAT1 % (PEGASYS fixed as 100%) is 10.2%. Same read-out and setting: the same measure for “6His K31pAF-30K PEG (from UniProt P01563 24-188) (ligand)”: 62.5%; for “6His K134pAF-30K PEG (from UniProt P01563 24-188) (ligand)”: 22.5%. “6His L110pAF-30K PEG (from UniProt P01563 24-188) (ligand)”: the pSTAT1 % (PEGASYS fixed as 100%) amounted to 27.8% and the pSTAT1 EC50 (pM) turned out to be 133 pM. Taken in the same sequence, the figures for “6His L117pAF-30K PEG (from UniProt P01563 24-188) (ligand)” were 50.6% and 242 pM.

Regarding “6His N45pAF-30K PEG (from UniProt P01563 24-188) (ligand)”, the pSTAT1 % (PEGASYS fixed as 100%) amounted to 18.2%. As to “6His N65pAF-30K PEG (from UniProt P01563 24-188) (ligand)”, the pSTAT1 % (PEGASYS fixed as 100%) is greater than 532% and the pSTAT1 EC50 (pM) is greater than 2860 pM.

Turning to “6His P39pAF-30K PEG (from UniProt P01563 24-188) (ligand)”, the pSTAT1 % (PEGASYS fixed as 100%) is 52.9% and the pSTAT1 EC50 (pM) worked out at 253 pM. “6His R12pAF-30K PEG (from UniProt P01563 24-188) (ligand)”: the pSTAT1 % (PEGASYS fixed as 100%) worked out at 138% and the pSTAT1 EC50 (pM) was 660 pM. Taken in the same sequence, the figures for “6His R125pAF-30K PEG (from UniProt P01563 24-188) (ligand)” were 47% and 225 pM. As for “6His T106pAF-30K PEG (from UniProt P01563 24-188) (ligand)”, the pSTAT1 % (PEGASYS fixed as 100%) was 28.4%. “6HisC1G/C98 IFNα-2a + limitin loop (from UniProt P01563 25-188) (ligand)”: the pSTAT1 % (PEGASYS fixed as 100%) is 6.27% and 7.27%; the pSTAT1 EC50 (pM) is 30 pM and 34.8 pM.

“PEGASYS® (Peginterferon alfa-2a) (from UniProt P01563 24-188) (ligand)” gave a pSTAT1 % (PEGASYS fixed as 100%) of 100% and a pSTAT1 EC50 (pM) of 479 pM.
